This note sets out measurements from patent US20190330296A1 (Janssen / Centocor, published 2019).

Substitutions are numbered along the chain they refer to. Where “and” joins values, the source holds several entries; their conditions need not be identical. Equal entries are not always repeated.

One experiment has as its target human GLP-1 receptor (human, UniProt P43220 24-463). The experiment is described as follows: cell-based or functional assay.
The target of experiment [1] is T1, human neuropeptide Y2 receptor (human, UniProt P49146 1-381).
T1 sequence (looked up): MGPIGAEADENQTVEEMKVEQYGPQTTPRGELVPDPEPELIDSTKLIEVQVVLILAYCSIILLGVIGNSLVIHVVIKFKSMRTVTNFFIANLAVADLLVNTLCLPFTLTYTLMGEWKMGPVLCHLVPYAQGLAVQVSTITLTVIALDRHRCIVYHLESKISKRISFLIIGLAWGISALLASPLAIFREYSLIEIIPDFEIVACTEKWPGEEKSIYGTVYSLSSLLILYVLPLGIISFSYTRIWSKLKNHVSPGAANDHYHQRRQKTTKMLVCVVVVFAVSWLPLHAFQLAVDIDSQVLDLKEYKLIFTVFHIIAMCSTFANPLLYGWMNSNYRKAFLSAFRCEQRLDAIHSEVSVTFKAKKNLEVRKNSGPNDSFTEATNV
As to the kind of experiment: cell-based or functional assay.

human GLP-1 receptor, sequence (P43220 24-463): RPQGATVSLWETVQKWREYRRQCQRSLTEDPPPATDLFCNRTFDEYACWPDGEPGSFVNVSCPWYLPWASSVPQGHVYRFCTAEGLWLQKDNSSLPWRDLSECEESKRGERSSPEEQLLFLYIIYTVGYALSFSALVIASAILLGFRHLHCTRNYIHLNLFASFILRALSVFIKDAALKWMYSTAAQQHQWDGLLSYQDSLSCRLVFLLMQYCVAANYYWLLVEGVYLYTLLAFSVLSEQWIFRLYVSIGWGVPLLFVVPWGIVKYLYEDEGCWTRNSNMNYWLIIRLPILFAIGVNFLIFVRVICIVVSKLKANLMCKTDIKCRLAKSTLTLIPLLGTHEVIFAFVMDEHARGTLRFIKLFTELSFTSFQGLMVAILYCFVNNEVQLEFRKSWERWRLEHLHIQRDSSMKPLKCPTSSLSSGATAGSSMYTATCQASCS

B1: GLP-1 fusion peptide GF54 (SEQ ID NO:166) (Fc fusion)
chain: HGEGTFTSDVSSYLEEQAAKEFIAWLVKGGGASAPAPAPAPAPAPAPAPAPAPGSCPPCPAPEAAGGPSVFLFPPKPKDTLMISRTPEVTCVVVDVSQEDPEVQFNWYVDGVEVHNAKTKPREEQFNSTYRVVSVLTVLHQDWLNGKEYKCKVSNKGLPSSIEKTISKAKGQPREPQVYTLPPSQEEMTKNQVSLTCLVKGFYPSDIAVEWESNGQPENNYKTTPPVLDSDGSFFLYSRLTVDKSRWQEGNVFSCSVMHEALHNHYTQKSLSLSLGKASGSAPAPAPEEEPCA
With B1, the “Human GLP1R EC50” value with human GLP-1 receptor is 0.035 nM and 0.053 nM.

B2: GLP-1 fusion peptide coupled cyclic PYY peptide conjugate SEQ ID NO:239 (Fc fusion)
chain: B1 chain
peptide: GISPEAPGEKASPEELNRYYASLRHYLNCVTRQRY
modifications: [cyclo-(G2-COCH2-C30), K(AcBr)11, N-Me-R35]-PYY2-36; Br displaced on conjugation to the linker Cys; C-terminal amide; Cys of the second linker peptide thioether-linked to the Lys11 side chain of the cyclic PYY peptide
Turning to B2, the “Human GLP1R EC50” value in the experiment with human GLP-1 receptor was determined as 0.042 nM. In experiment [1], the “Human Y2R EC50” value was determined as 0.006 nM.

B3: GLP-1 fusion peptide GF40 (SEQ ID NO:152) (Fc fusion)
chain: HGEGTFTSDVSSYLEEQAAKEFIAWLVKGGGASGGGGSGGGGSCPPCPAPEAAGGPSVFLFPPKPKDTLMISRTPEVTCVVVDVSQEDPEVQFNWYVDGVEVHNAKTKPREEQFNSTYRVVSVLTVLHQDWLNGKEYKCKVSNKGLPSSIEKTISKAKGQPREPQVYTLPPSQEEMTKNQVSLTCLVKGFYPSDIAVEWESNGQPENNYKTTPPVLDSDGSFFLYSRLTVDKSRWQEGNVFSCSVMHEALHNHYTQKSLSLSLGKASGSAPAPAPEEEPCA
As for B3, the “Human GLP1R EC50” value with human GLP-1 receptor worked out at 0.207 nM.

B4: GLP-1 fusion peptide coupled cyclic PYY peptide conjugate SEQ ID NO:249 (Fc fusion)
chain: B3 chain
peptide: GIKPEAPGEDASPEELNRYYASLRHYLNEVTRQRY
modifications: [cyclo-(G2-E30), S4, K(AcBr)11, N-Me-R35]-PYY2-36; Br displaced on conjugation to the linker Cys; C-terminal amide; Cys of the second linker peptide thioether-linked to the Lys11 side chain of the cyclic PYY peptide
B4: the “Human GLP1R EC50” value with human GLP-1 receptor is 0.148 nM. Also, the “Human Y2R EC50” value in experiment [1] stood at 0.143 nM.

B5: GLP-1 fusion peptide coupled cyclic PYY peptide conjugate SEQ ID NO:250 (Fc fusion)
chain: B3 chain
peptide: B2 peptide with C29E
modifications: [cyclo-(G2-E30), S4, K(AcBr)11, psi-(R35,Y36)]-PYY2-36; Br displaced on conjugation to the linker Cys; C-terminal amide; Cys of the second linker peptide thioether-linked to the Lys11 side chain of the cyclic PYY peptide
For the molecule B5, the “Human GLP1R EC50” value with human GLP-1 receptor is 0.213 nM. In addition, in experiment [1], the “Human Y2R EC50” value turned out to be 0.01 nM.

B6: GLP-1 fusion peptide coupled cyclic PYY peptide conjugate SEQ ID NO:248 (Fc fusion)
chain: B3 chain
peptide: B2 peptide
modifications: [cyclo-(G2-COCH2-C30), K(AcBr)11, N-Me-R35]-PYY2-36; Br displaced on conjugation to the linker Cys; C-terminal amide; Cys of the second linker peptide thioether-linked to the Lys11 side chain of the cyclic PYY peptide
B6: in the experiment with human GLP-1 receptor, the “Human GLP1R EC50” value stood at 0.264 nM. For the same molecule, the “Human Y2R EC50” value in experiment [1] worked out at 0.018 nM.

B7: GLP-1 fusion peptide GF27 (SEQ ID NO:139) (Fc fusion)
chain: HGEGTFTSDVSSYLEEQAAKEFIAWLVKGGGAPAPAPAPAPAPAPAPAPAPAPAPAGPPCPPCPAPEAAGGPSVFLFPPKPKDTLMISRTPEVTCVVVDVSQEDPEVQFNWYVDGVEVHNAKTKPREEQFNSTYRVVSVLTVLHQDWLNGKEYKCKVSNKGLPSSIEKTISKAKGQPREPQVYTLPPSQEEMTKNQVSLTCLVKGFYPSDIAVEWESNGQPENNYKTTPPVLDSDGSFFLYSRLTVDKSRWQEGNVFSCSVMHEALHNHYTQKSLSLSLGAPAPAPAPAPAPCPEEP
As to B7, the “Human GLP1R EC50” value with human GLP-1 receptor is 0.054 nM.

B8: GLP-1 fusion peptide GF41 (SEQ ID NO:153) (Fc fusion)
chain: HGEGTFTSDVSSYLEEQAAKEFIAWLVKGGGASGGGGSGGGGSGGGGSGGGGSCPPCPAPEAAGGPSVFLFPPKPKDTLMISRTPEVTCVVVDVSQEDPEVQFNWYVDGVEVHNAKTKPREEQFNSTYRVVSVLTVLHQDWLNGKEYKCKVSNKGLPSSIEKTISKAKGQPREPQVYTLPPSQEEMTKNQVSLTCLVKGFYPSDIAVEWESNGQPENNYKTTPPVLDSDGSFFLYSRLTVDKSRWQEGNVFSCSVMHEALHNHYTQKSLSLSLGKASGSAPAPAPEEEPCA
As for B8, the “Human GLP1R EC50” value with human GLP-1 receptor was determined as 0.049 nM.
